Molecular target: the molecule itself
Test: thioflavin-T fluorescence of fibrillation + electron microscopy; 40 μM apo protein in 10 mM potassium phosphate, pH 7.0, with TCEP (0-10 mM) and 40 μM thioflavin-T, 37°C, agitated at 300 rpm in 96-well plates with a Teflon ball; fibrils seen by negative-stain EM

B1: apo C6A/C111S human SOD1 (apo AS-SOD1) (enzyme)
chain: not shown
modifications: no N-terminal acetylation (expression in E. coli); metal-free (apo); C57-C146 disulfide intact at the start and reduced by TCEP in the reaction
notes: Cu/Zn superoxide dismutase 1 (SOD1), human, 153-residue subunit, both free cysteines removed (C6A, C111S); numbers count on: the mature protein (numbered from A1); The printed mass of AS S-S (15756.43 Da) appears to fit the 153-residue chain without Met and without acetyl; also called AS mutant; apo AS^S–S; source: E. coli, purified, demetallated by dialysis (apo)
Q: Does B1 bind?
A: Result: binds
